Data published in PMC5916898, “Global profiling of protein–DNA and protein–nucleosome binding affinities using quantitative mass spectrometry”.

T1: VEZF1 (Homo sapiens, UniProt Q14119)
T1 sequence: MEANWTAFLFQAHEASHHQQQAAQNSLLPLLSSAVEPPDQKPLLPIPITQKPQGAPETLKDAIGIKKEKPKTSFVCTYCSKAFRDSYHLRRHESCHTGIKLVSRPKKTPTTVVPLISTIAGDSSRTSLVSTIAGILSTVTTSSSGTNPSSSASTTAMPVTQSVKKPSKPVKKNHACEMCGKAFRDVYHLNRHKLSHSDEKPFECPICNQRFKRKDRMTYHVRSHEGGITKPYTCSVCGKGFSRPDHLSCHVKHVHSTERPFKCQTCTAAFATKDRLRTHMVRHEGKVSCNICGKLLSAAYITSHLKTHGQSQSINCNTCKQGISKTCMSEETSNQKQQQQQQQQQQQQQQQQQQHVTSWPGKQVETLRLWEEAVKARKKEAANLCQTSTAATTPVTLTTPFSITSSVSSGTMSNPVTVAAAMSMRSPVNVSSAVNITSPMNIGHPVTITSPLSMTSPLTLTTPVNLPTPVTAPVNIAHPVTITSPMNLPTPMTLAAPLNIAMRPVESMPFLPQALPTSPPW

T2: FOXL2 (Homo sapiens, UniProt P58012)
T2 sequence: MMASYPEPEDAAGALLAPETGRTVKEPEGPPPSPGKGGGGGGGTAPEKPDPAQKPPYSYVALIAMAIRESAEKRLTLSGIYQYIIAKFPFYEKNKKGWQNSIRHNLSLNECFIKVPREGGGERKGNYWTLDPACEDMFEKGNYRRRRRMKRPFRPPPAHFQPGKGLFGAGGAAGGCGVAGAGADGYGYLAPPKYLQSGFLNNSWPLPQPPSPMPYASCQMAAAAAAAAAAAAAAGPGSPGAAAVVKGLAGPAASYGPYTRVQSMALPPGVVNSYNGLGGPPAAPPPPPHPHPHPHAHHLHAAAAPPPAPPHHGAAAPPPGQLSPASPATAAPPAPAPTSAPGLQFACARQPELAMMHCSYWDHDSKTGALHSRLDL

B1: TEAD (dsDNA)
DNA 1: TCGGGACCCAGGCCTGGAATGTTTCCACC
DNA 2: GGTGGAAACATTCCAGGCCTGGGTCCCGA
B2: CTCF (dsDNA)
DNA 1: TCAGAGTGGCGGCCAGCAGGGGGCGCCCTTGCCAGA
DNA 2: TCTGGCAAGGGCGCCCCCTGCTGGCCGCCACTCTGA
B3: SP/KLF wild-type (dsDNA)
DNA 1: GAGAGCCCCGCCCCCTGGCT
DNA 2: AGCCAGGGGGCGGGGCTCTC
B4: TATA-box (dsDNA)
DNA 1: GCGGCGCTCTATATAAGTGGGCAGTG
DNA 2: CACTGCCCACTTATATAGAGCGCCGC

Columns and labels:
RBPJ = RBPJ (Homo sapiens, UniProt Q06330); test: pulldown; 150 mM NaCl, 50 mM Tris pH 8, 0.25% NP-40, 1 mM TCEP; 4 C, 2 h; 100 ug HeLa nuclear lysate; settings: protein: extract; label: 5' biotin (strand 1)
Chain of RBPJ (Q06330 whole entry): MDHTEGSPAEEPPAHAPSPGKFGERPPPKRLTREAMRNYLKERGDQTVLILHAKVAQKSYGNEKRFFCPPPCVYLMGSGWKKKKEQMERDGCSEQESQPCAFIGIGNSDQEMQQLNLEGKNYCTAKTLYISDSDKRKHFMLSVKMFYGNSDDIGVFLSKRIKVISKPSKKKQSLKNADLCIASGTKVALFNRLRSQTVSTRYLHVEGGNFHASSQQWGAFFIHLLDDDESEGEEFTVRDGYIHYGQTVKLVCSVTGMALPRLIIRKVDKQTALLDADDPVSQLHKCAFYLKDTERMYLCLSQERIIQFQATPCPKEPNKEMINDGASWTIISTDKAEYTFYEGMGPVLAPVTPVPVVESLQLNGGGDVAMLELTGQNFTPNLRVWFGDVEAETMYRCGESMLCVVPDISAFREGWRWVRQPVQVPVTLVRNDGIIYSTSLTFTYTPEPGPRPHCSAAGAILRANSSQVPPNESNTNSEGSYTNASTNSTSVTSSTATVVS

VEZF1 [1] = target: T1, VEZF1; test: as above; settings: protein: extract; label: 5' biotin (strand 1)
FOXL2 = target: T2, FOXL2; test: as above; settings: protein: extract; label: 5' biotin (strand 1)
NFIA = NFIA (Homo sapiens, UniProt Q12857); test: as above; settings: protein: extract; label: 5' biotin (strand 1)
Chain of NFIA (Q12857 whole entry): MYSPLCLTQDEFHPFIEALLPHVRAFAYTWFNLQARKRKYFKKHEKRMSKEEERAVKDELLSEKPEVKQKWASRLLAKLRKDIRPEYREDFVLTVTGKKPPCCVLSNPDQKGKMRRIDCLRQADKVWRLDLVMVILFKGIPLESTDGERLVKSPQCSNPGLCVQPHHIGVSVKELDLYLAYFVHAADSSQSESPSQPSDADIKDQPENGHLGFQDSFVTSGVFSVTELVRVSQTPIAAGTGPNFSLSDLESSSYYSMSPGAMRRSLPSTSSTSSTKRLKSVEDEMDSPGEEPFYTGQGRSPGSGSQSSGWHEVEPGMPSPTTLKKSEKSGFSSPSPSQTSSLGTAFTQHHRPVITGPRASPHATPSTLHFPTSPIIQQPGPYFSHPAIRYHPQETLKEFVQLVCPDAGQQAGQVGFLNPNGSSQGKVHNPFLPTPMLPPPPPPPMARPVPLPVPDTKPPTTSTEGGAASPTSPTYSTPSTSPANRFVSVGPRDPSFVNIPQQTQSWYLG

ZBTB7B = ZBTB7B (Homo sapiens, UniProt O15156); test: as above; settings: protein: extract; label: 5' biotin (strand 1)
Chain of ZBTB7B (O15156 whole entry): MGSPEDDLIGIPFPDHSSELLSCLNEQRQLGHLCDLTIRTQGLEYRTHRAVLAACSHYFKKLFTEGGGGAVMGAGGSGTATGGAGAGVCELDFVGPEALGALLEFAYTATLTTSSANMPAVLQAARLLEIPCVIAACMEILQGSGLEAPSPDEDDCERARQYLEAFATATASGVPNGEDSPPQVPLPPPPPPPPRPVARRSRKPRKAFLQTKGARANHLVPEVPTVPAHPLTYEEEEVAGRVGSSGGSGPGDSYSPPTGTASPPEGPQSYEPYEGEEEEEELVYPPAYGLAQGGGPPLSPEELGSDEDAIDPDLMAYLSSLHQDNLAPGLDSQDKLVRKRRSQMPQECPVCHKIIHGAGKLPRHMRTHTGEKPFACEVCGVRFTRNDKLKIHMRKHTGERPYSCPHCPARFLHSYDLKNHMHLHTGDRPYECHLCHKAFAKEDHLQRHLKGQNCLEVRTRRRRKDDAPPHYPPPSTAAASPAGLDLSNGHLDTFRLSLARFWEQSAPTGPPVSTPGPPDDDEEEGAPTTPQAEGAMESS

KLF10 = KLF10 (Homo sapiens, UniProt Q13118); test: as above; settings: protein: extract; label: 5' biotin (strand 1)
Chain of KLF10 (Q13118 whole entry): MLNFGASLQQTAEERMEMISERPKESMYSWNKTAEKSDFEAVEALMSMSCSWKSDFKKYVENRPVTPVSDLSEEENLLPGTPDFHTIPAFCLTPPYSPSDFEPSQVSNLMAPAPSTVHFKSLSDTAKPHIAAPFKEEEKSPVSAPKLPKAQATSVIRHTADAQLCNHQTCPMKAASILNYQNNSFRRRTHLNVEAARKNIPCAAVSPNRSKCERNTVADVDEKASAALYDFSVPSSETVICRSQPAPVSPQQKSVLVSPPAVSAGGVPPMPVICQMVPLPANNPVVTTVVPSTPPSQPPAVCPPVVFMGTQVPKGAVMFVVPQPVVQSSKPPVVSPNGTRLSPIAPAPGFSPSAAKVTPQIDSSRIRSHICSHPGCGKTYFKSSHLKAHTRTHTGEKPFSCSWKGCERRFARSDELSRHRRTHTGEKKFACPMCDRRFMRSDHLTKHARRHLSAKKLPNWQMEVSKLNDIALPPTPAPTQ

SP3 [2] = target: T3, SP3 (Homo sapiens, UniProt Q02447); test: as above; settings: protein: extract; label: 5' biotin (strand 1)
T3 sequence (Q02447 whole entry): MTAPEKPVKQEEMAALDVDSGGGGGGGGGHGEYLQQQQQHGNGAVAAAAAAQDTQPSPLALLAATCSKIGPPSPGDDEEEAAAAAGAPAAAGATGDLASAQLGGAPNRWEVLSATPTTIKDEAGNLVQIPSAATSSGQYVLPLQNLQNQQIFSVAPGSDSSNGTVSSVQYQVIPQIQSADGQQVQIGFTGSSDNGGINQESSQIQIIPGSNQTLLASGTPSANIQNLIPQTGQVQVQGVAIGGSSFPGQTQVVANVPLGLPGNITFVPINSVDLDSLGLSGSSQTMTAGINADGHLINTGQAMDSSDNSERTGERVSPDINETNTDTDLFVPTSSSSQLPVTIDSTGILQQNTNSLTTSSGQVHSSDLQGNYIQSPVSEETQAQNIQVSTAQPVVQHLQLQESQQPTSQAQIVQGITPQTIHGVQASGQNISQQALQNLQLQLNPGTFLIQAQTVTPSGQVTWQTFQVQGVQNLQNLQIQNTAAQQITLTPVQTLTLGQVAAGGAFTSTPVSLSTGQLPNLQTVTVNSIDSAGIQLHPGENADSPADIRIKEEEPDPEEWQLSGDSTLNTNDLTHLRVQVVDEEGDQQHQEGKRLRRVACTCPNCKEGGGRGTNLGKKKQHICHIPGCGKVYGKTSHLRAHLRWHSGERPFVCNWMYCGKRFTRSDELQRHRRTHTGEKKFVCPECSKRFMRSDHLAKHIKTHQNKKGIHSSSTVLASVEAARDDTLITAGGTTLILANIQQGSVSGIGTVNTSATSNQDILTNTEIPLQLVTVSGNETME

KLF3 = KLF3 (Homo sapiens, UniProt P57682); test: as above; settings: protein: extract; label: 5' biotin (strand 1)
Chain of KLF3 (P57682 whole entry): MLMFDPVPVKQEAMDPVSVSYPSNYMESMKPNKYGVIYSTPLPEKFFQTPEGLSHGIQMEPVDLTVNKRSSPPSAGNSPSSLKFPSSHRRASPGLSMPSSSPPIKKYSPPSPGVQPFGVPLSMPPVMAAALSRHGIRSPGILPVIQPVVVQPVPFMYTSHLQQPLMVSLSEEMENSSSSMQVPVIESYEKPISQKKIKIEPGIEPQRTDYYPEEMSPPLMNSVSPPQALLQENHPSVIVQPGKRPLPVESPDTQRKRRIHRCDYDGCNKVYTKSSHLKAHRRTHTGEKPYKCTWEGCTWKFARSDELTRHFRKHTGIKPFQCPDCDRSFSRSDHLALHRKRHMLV

TFAP2A = TFAP2A (Homo sapiens, UniProt P05549); test: competition; 150 mM NaCl, 50 mM Tris pH 8, 0.25% NP-40, 1 mM TCEP; 4 C, 2 h; 100 ug HeLa nuclear lysate; free competitor against 200 nM immobilised SP/KLF wild-type; settings: protein: extract
Chain of TFAP2A (P05549 whole entry): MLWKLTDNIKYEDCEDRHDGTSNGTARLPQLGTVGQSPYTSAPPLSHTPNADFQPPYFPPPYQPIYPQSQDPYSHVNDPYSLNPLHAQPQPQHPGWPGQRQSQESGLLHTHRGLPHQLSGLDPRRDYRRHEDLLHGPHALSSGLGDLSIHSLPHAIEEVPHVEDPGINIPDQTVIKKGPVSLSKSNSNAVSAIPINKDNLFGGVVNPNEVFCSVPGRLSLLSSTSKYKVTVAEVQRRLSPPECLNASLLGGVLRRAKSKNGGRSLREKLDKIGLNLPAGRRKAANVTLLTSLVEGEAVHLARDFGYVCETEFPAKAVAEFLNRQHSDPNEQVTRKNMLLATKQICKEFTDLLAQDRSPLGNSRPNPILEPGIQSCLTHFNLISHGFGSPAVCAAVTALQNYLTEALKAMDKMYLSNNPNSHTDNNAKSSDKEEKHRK

SP3 [3] = target: T3, SP3; test: as above; settings: protein: extract
KLF16 = KLF16 (Homo sapiens, UniProt Q9BXK1); test: as above; settings: protein: extract
Chain of KLF16 (Q9BXK1 whole entry): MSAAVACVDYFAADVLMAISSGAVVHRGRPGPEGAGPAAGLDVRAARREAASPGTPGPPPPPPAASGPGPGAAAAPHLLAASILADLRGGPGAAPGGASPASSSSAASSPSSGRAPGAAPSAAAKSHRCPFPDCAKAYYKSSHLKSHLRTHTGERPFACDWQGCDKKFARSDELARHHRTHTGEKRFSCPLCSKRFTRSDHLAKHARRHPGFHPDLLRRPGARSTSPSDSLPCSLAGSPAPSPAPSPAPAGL

VEZF1 [4] = target: T1, VEZF1; test: as above; settings: protein: extract
ZBTB7A = ZBTB7A (Homo sapiens, UniProt O95365); test: as above; settings: protein: extract
Chain of ZBTB7A (O95365 whole entry): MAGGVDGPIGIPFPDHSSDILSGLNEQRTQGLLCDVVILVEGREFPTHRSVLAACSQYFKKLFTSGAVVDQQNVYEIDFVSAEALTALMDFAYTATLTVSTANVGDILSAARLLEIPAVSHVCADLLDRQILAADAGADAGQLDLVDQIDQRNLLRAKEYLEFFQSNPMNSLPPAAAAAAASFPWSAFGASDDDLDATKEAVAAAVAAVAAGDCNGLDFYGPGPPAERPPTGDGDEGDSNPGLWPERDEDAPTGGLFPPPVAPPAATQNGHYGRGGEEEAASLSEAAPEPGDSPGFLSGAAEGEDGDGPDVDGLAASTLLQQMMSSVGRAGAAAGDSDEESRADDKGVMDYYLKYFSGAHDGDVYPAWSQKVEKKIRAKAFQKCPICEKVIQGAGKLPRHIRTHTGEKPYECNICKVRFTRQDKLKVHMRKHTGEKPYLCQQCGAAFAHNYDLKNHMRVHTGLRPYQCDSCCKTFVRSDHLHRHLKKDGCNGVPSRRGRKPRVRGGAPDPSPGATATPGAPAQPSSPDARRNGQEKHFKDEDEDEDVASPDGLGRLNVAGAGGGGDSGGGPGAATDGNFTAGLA

KLF13 = KLF13 (Homo sapiens, UniProt Q9Y2Y9); test: as above; settings: protein: extract
Chain of KLF13 (Q9Y2Y9 whole entry): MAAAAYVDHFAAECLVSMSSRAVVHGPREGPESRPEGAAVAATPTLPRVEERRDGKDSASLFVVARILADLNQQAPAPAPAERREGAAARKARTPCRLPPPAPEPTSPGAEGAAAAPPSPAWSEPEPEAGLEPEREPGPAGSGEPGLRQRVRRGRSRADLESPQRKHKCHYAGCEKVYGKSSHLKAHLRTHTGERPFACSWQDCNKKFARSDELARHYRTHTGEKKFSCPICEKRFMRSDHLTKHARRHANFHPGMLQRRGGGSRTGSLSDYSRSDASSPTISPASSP

SP4 = SP4 (Homo sapiens, UniProt Q02446); test: as above; settings: protein: extract

Binder | apparent K (half saturation) (RBPJ) | apparent K (half saturation) (VEZF1 [1]) | apparent K (half saturation) (FOXL2) | apparent K (half saturation) (NFIA) | apparent K (half saturation) (ZBTB7B) | apparent K (half saturation) (KLF10) | apparent K (half saturation) (SP3 [2]) | apparent K (half saturation) (KLF3) | IC50 (TFAP2A) | IC50 (SP3 [3]) | IC50 (KLF16) | IC50 (VEZF1 [4]) | IC50 (ZBTB7A) | IC50 (KLF13) | IC50 (SP4)
B1 | 208 nM | 225 nM | 140 nM | 119 nM |  |  |  |  |  |  |  |  |  |  | 
B2 | 376 nM | 34.1 nM |  | 72.8 nM | 39.2 nM | 41.2 nM | 72 nM | 124 nM |  |  |  |  |  |  | 
B3 |  | 182 nM |  |  |  |  | 19.3 nM | 61.9 nM | 215 nM | 147 nM | 176 nM | 270 nM | 263 nM | 86.2 nM | 87.5 nM
B4 |  | 227 nM | 140 nM |  | 230 nM | 84.5 nM |  |  |  |  |  |  |  |  | 
